Measured values from patent US20260242504A1 (published 2026).

Target: T1, recombinant human 5T4 protein (5T4/His) (UniProt Q13641 32-355)
T1 chain: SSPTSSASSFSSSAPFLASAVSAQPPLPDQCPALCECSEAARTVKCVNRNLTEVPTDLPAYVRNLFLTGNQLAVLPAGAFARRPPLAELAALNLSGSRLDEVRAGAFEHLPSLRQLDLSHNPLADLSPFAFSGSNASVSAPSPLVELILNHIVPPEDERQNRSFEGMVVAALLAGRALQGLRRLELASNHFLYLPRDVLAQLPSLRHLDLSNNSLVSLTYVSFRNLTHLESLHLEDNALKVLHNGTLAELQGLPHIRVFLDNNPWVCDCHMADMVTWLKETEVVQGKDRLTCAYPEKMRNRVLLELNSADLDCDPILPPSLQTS
Assay: ELISA

| Binder | EC50 |
| --- | --- |
| 53D tribody (other) chain 1: QVQLVQSGAEVKKPGASVKVSCKASGYSFTSYYMHWVKQSPGQGLEWIGRINPNNGVTLYNQKFKDRVTMTRDTSISTAYMELSRLRSDDTAVYYCARSTMITNYVMDYWGQGTLVTVSSASTKGPSVFPLAPSSKSTSGGTAALGCLVKDYFPEPVTVSWNSGALTSGVHTFPAVLQSSGLYSLSSVVTVPSSSLGTQTYICNVNHKPSNTKVDKKVEPKSCDKTHTGPGGGSPGQVQLVQSGAELKKPGASVKVSCKASGYTFTRYTMHWVRQAPGQCLEWMGYINPSRGYTNYNQKFKDKATLTADKSTSTAYMELRSLRSDDTAVYYCARYYDDHYSLDYWGQGTLVTVSSASGGGGSGGGGSGGGGSAGDIQLTQSPSILSASVGDRVTITCRASSSVSYMNWYQQKPGKAPKRWIYDTSKVASGVPYRFSGSGSGTEYTLTISSMQPEDFATYYCQQWSSNPLTFGCGTKVEIKSG chain 2: not shown | 0.79 nM |
| 53G tribody (other) chain 1: QVQLVQSGAEVKKPGASVKVSCKASGYSFTSYYMHWVKQSPGQGLEWIGRINPNNGVTLYNQKFKDRVTMTRDTSISTAYMELSRLRSDDTAVYYCARSTMITNYVMDYWGQGTLVTVSSASTKGPSVFPLAPSSKSTSGGTAALGCLVKDYFPEPVTVSWNSGALTSGVHTFPAVLQSSGLYSLSSVVTVPSSSLGTQTYICNVNHKPSNTKVDKKVEPKSCDKTHTGPGGGSPGQVQLVQSGAELKKPGASVKVSCKASGYTFTRYTMHWVRQAPGQCLEWMGYINPSRGYTNYNQKFKDKATLTADKSTSTAYMELRSLRSDDTAVYYCARYYDDHYSLDYWGQGTLVTVSSASGGGGSGGGGSGGGGSAGDIQLTQSPSILSASVGDRVTITCRASSSVSYMNWYQQKPGKAPKRWIYDTSKVASGVPYRFSGSGSGTEYTLTISSMQPEDFATYYCQQWSSNPLTFGCGTKVEIKSG chain 2: not shown | 0.78 nM |
| 53P tribody (other) chain 1: QVQLVQSGAEVKKPGASVKVSCKASGYSFTSYYMHWVKQSPGQGLEWIGRINPNNGVTLYNQKFKDRVTMTRDTSISTAYMELSRLRSDDTAVYYCARSTMITNYVMDYWGQGTLVTVSSASTKGPSVFPLAPSSKSTSGGTAALGCLVKDYFPEPVTVSWNSGALTSGVHTFPAVLQSSGLYSLSSVVTVPSSSLGTQTYICNVNHKPSNTKVDKKVEPKSCDKTHTGPGGGSPGQVQLVQSGAELKKPGASVKVSCKASGYTFTRYTMHWVRQAPGQCLEWMGYINPSRGYTNYNQKFKDKATLTADKSTSTAYMELRSLRSDDTAVYYCARYYDDHYSLDYWGQGTLVTVSSASGGGGSGGGGSGGGGSAGDIQLTQSPSILSASVGDRVTITCRASSSVSYMNWYQQKPGKAPKRWIYDTSKVASGVPYRFSGSGSGTEYTLTISSMQPEDFATYYCQQWSSNPLTFGCGTKVEIKSG chain 2: not shown | 0.84 nM |
